Measurements from the nanobody polyreactivity screen of Harvey et al. (2022).

Assay: yeast display, Sf9 membrane polyspecificity reagent, FACS + sequencing; frameworks hold sequencing errors
Summary of the method: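 In a synthetic yeast display library (Saccharomyces cerevisiae BJ5465), nanobody expression was induced with galactose for 36–48 hours. FACS gates were set low and high (top ~1%) using anti-HA fluorescence for expression and streptavidin fluorescence for binding of the Sf9 membrane reagent. Each polyreactivity label is drawn from the gate of origin.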
With “QVQLVESGGGLVQAGGSLRLSCAASGSIFHYNAMGWYRQAPGKERELVARISVNGGRTYYADSVKGRFTISRDNAKNTVYLQMNSLKPEDTEVYYCAVEGVWRSFFYGYDSWGQGTQVTVSS” the “polyreactivity (PSR sort gate)” value was “low polyreactivity”. For “QVQLVESGGGLVQAGGSLRLSCAASGSIFHYYAMGWYRPAPGKERELVAAISWSGGRTYYADSVKGRFTISRDNAKNTVYLQMNSLKPEDTAVYYCAAARGESYEFYSWGQGTQVTVSS”, the “polyreactivity (PSR sort gate)” value was “high polyreactivity”. In the case of “QVQLVESGGGLVQAGGSLRLSCAASGSIFIANAMGWYRQAPGKERELVATISWSGGRTYYADSVKGRFTISRDNAKNTVYLQMNSLKPEDTAVYYCAAVYGAYDSGYKYNYWGQGTQVTVSS”, the “polyreactivity (PSR sort gate)” value is reported as “high polyreactivity”. With “QVQLVESGGGLVQAGGSLRLSCAASGSIFIFNAMGWYRQAPGKEREFVARIRRDSSTYYADSVKGRFTISRDNAKNTVYLQMNSLKPEDTAVYYCADKRVYRRVELNSWGQGTQVTVSS” the “polyreactivity (PSR sort gate)” value was “low polyreactivity”. With “QVQLVESGGGLVQAGGSLRLSCAASGSIFIFYAMGWYRQAPGNERELVADITSDGASTYYADSVKGRFTISRDNAKNTVYLQMNSLKPEDTAVYYCAADYIDSSAYDYWGQGTQVTVSS” the “polyreactivity (PSR sort gate)” value was “low polyreactivity”. In the case of “QVQLVESGGGLVQAGGSLRLSCAASGSIFIGNAMGWYRQAPGKERELVAVISKGGGRTYYADSVKGRFTISRDNAKNTVYLQMNSLKPEDSAVYYCNTRNPHRGDYWGQGTQVTVSS”, the “polyreactivity (PSR sort gate)” value is reported as “high polyreactivity”. For “QVQLVESGGGLVQAGGSLRLSCAASGSIFIGYAIGWYRQAPGKERELVAAITNGGRTYFADSVKGRFTISRDNAKNTVYLQMISLKPEDTAVYYCAAVPSQTYRRTPYLWHDYWGQGTQVTVSS”, the “polyreactivity (PSR sort gate)” value was “high polyreactivity”. With “QVQLVESGGGLVQAGGSLRLSCAASGSIFIGYAMGWYRQAPGKERELVAAITSGSITNYADSVKGRFTISRDNAKNTVYLQMNSLKPEDTAVYYCAADIYTYLGAYYIGYYWGQGTQVTVSS” the “polyreactivity (PSR sort gate)” value was “low polyreactivity”. In the case of “QVQLVESGGGLVQAGGSLRLSCAASGSIFIGYARGWYRQAPGKERELVAGISWSGGSTYYADSVKGRFSISRDNAKNTVYLQMNSLKPEDTAVYYCNADITLYYFWAWTYGYYYWGQGTQVTVSS”, the “polyreactivity (PSR sort gate)” value is reported as “high polyreactivity”. For “QVQLVESGGGLVQAGGSLRLSCAASGSIFILNAMGWYRQAPGKERELVAAISSSGGSTYYADSVMGRFTISRDNAKYTDYLQMNSLKPEDSAVYYCAAERNYYFLFPYDSWGQGTQVTVSS”, the “polyreactivity (PSR sort gate)” value was “high polyreactivity”. For “QVQLVESGGGLVQAGGSLRLSCAASGSIFINNAMGWYRQAPGKERELVAAISSSGTTYYADSVKGRFTISRDNAKNSVYLQMNSLKPEDTAVYYCNARYSLHSYYCFIYDSWGQGTKVTVSS”, the “polyreactivity (PSR sort gate)” value was “low polyreactivity”. In the case of “QVQLVESGGGLVQAGGSLRLSCAASGSIFINYAMGWYRQAPGKERELVAAISKNGGNTYYADSVKGRFTISRDNAKNTVYLQMNSLKPEDTAVYYCNYDYWGQGTQVTVSS”, the “polyreactivity (PSR sort gate)” value is reported as “low polyreactivity”. For “QVQLVESGGGLVQAGGSLRLSCAASGSIFIPNAMGWYRQAPGKERELVAAISLSDTTTYYADSVKGRFTISRDNAKNTVYLKMNSLKPEDTAVYYCAADYWFYPTSPDMDYLGQGTQVTVSS”, the “polyreactivity (PSR sort gate)” value was “low polyreactivity”. For “QVQLVESGGGLVQAGGSLRLSCAASGSIFIQYAMGWYRQAPGKERELVAAITGSGGSTYYADSVKGRFTISRDNAKNTVYLQMNSLKPEDTAVYYCATEFKRGYVGFDYWGQGTQVTVSS”, the “polyreactivity (PSR sort gate)” value was “low polyreactivity”. In the case of “QVQLVESGGGLVQAGGSLRLSCAASGSIFIRNAMGWYRQAPGKERELVAAITSGGNTYYADSVKGRFTISRDNAKNTVYFQMNSLKPEDTAVWGQGTQVTLSS”, the “polyreactivity (PSR sort gate)” value is reported as “low polyreactivity”. With “QVQLVESGGGLVQAGGSLRLSCAASGSIFISYAMGWYRQAPGKARELVAAISRSGGSTYYADSVKGRFTISRDNAKNTVYLQMNSLKPEDTAVYYCAARSYPGKAGMGYWGQGTQVTVSS” the “polyreactivity (PSR sort gate)” value was “high polyreactivity”. With “QVQLVESGGGLVQAGGSLRLSCAASGSIFISYAMGWYRQAPGKERELVAAISRSAGRTYYADSVKGRFTISRDNAKNTVYLQMNSLKPEDTAVYYCAASGYKNGVYTYGYWGQGTQVTVSS” the “polyreactivity (PSR sort gate)” value was “high polyreactivity”. With “QVQLVESGGGLVQAGGSLRLSCAASGSIFITYAMGWYRQAPGKERELVAAIRDSGDRTYYADSVKGRFTISRDKAKNTDYLQKNSLKPEDTAVYYCNARWQEPLKYDYWGQGTQVTVSS” the “polyreactivity (PSR sort gate)” value was “low polyreactivity”. With “QVQLVESGGGLVQAGGSLRLSCAASGSIFITYAMGWYRQAPGKERELVAAIRDSGDRTYYADSVKGRFTISRDNAKNTVYLQMNRLKPEETAVYYCNARWQEPLKYDYWGQGTQVTVSS” the “polyreactivity (PSR sort gate)” value was “low polyreactivity”. For “QVQLVESGGGLVQAGGSLRLSCAASGSIFIVYAMGWYRQAPGKERELVATITSGGSTNYADSVKGRFTISRDNAKNTVYLQMNSLKPEDTAVYYCATQFPPSTIYDYWGQGTQVTVSS”, the “polyreactivity (PSR sort gate)” value was “low polyreactivity”. In the case of “QVQLVESGGGLVQAGGSLRLSCAASGSIFIYNAMGWYRQAPGKERELVAAISSSGGSTYYADSVKGRFTISRDNAKNTVYLQMNSLKPEDTAVYYCAARTYYVRGLGGRTGMDYWGQGTQVTVSS”, the “polyreactivity (PSR sort gate)” value is reported as “low polyreactivity”. In the case of “QVQLVESGGGLVQAGGSLRLSCAASGSIFIYNAMGWYRQAPGKERELVAAISSSGGSTYYADSVKGRFTISRDYAKNTVYLQLNSLKPEDTAVYYCAARTYYVRGLGGRPGMDYWGQGTHVTVSS”, the “polyreactivity (PSR sort gate)” value is reported as “low polyreactivity”. For “QVQLVESGGGLVQAGGSLRLSCAASGSIFIYYAIGWYRKAPGKERELVAAIDRSGGNTYYADSVKGRFTISRDNAKNTVYLQMNSLKPEDTAVYYCAALVHRRVQYDYWGQGTQVTVSS”, the “polyreactivity (PSR sort gate)” value was “high polyreactivity”. In the case of “QVQLVESGGGLVQAGGSLRLSCAASGSIFIYYAMGWYRQAPGKEMELVAAISSSGGSTYYADSVKGRFTISRDNAKNTVYLQMNSLKPEDTAVYYCAAAYGGRLRYTAGYYWGQGTQVTVSS”, the “polyreactivity (PSR sort gate)” value is reported as “high polyreactivity”. In the case of “QVQLVESGGGLVQAGGSLRLSCAASGSIFIYYAMGWYRQAPGKERELVAAIDYSGDSTYYADSVKGRFTISRDNAKNTVYLQMNSLKPEDTAVYYCAVYYAGWGDYWGQGTQVTVSS”, the “polyreactivity (PSR sort gate)” value is reported as “low polyreactivity”. For “QVQLVESGGGLVQAGGSLRLSCAASGSIFIYYAMGWYRQAPGKERELVAAISWSGGDTYYADSVKGRFTISRDNAKNTVYFHMNILKPEDTAVYYCNADYYPYYPYTAWDTVLTHDEYWGQGTQVTVSS”, the “polyreactivity (PSR sort gate)” value was “low polyreactivity”. With “QVQLVESGGGLVQAGGSLRLSCAASGSIFIYYAMGWYRQAPGKERELVAAISWSGGDTYYADSVKGRFTISRDNAKNTVYLQMNSLKPEDTAVYYCNADYDPYYPYTAWDTVLTHDEYWGQGTQVTVSS” the “polyreactivity (PSR sort gate)” value was “low polyreactivity”. In the case of “QVQLVESGGGLVQAGGSLRLSCAASGSIFIYYAMGWYRQAPGKERELVAGININGGSTYYADSVKGRFTISRDNAKNTVYLQMNSLKPEDTAVYYCAADELWWTYWDFVTNWYQRDYWGQGTQVTVSS”, the “polyreactivity (PSR sort gate)” value is reported as “low polyreactivity”. For “QVQLVESGGGLVQAGGSLRLSCAASGSIFIYYSMGWYRQAPGKERELVAAISWSGGDTYYADSVKGRFTISRDNAKNTVYLQMNSLKPEDTAVYYCAADSVTRPAGDYWGQGTQVTVSS”, the “polyreactivity (PSR sort gate)” value was “low polyreactivity”. With “QVQLVESGGGLVQAGGSLRLSCAASGSIFKDNAMGWYRQAPGKERELVAAITSGASTNYADSVKGRFTISRDNAKNTVYLQMNSLKPEDTAVYYCAAVLAGGVYWVVHYDYWGQGTQVTVSS” the “polyreactivity (PSR sort gate)” value was “low polyreactivity”. With “QVQLVESGGGLVQAGGSLRLSCAASGSIFKEYAMGWYRQAPGKERELVAAITGSGGSTFYADSVKGRFTISRDNAKNTVYLQMNSLIPEDTAVYYCNARRPAKSRYRHDYWGQGTQVTVSS” the “polyreactivity (PSR sort gate)” value was “high polyreactivity”. For “QVQLVESGGGLVQAGGSLRLSCAASGSIFKEYTMGWYRQAPGKERELVAAITWSDGSTDYADSVKGRFTISRDNAKNTVYLQMNSLKPEDTAVYYCAADYDYPYFWSSGYIDDYWGQGTQVTVSS”, the “polyreactivity (PSR sort gate)” value was “low polyreactivity”. In the case of “QVQLVESGGGLVQAGGSLRLSCAASGSIFKFNTMGWYRQAPGKERELVASITRVGSTYYADSVKGRFTISRDNAKNTVYLQMNSLKPEDTAVYYCAARFLYYTYKTFRTYDYWGQGTQVSVSS”, the “polyreactivity (PSR sort gate)” value is reported as “high polyreactivity”. With “QVQLVESGGGLVQAGGSLRLSCAASGSIFKFYTMGWYIQAPGKERELVATITSGGRTNYADSVKGRFTISPDNAKNTVYLQMNTLKPEDTAVYYCAATWLRVKYRFKGYDYWGQGTQVTVSS” the “polyreactivity (PSR sort gate)” value was “high polyreactivity”. In the case of “QVQLVESGGGLVQAGGSLRLSCAASGSIFKFYTMGWYRQAAGKEWELVATISRSGGGTFYADSVKGRFTISRDNAKNTVYLQMNSLKPEDTAVYYCAADPAFTHYPYGYGYWGQGTQVTVSS”, the “polyreactivity (PSR sort gate)” value is reported as “low polyreactivity”. With “QVQLVESGGGLVQAGGSLRLSCAASGSIFKGYAMGWYRQAPGKERELVAAITIDGSTYYADSVKGRFTISRDNAKNTVYLQMNSLKPEDTAVYYCAAVYLWYGSWPLHFAAYDYWGQGTQVTVSS” the “polyreactivity (PSR sort gate)” value was “low polyreactivity”. With “QVQLVESGGGLVQAGGSLRLSCAASGSIFKGYAMGWYRQAPGKERELVAAITYSGGGTYYADSVKGRFTISRDNAKNTVYIQMNILKPEDTAVYYCNADRYYPDDLSDGVGTYDYWGQGTQVTVSS” the “polyreactivity (PSR sort gate)” value was “low polyreactivity”. With “QVQLVESGGGLVQAGGSLRLSCAASGSIFKGYAMGWYRQAPGKERELVASITSSGASTYYADSGKGRFTISRDNAKNTVYLHMNSLKPEDTAVYYCATDHESVRVLVSSTSDYDYWGQGTQVTVSS” the “polyreactivity (PSR sort gate)” value was “low polyreactivity”. With “QVQLVESGGGLVQAGGSLRLSCAASGSIFKHNDMGWYRQAPGKERELVAAISRSGGSTYYADSVKGRFTISRDNAKNTVYLQMNSLKPEDTAVYYCAKDGVGAPSTYNYWGQGTQVTVSS” the “polyreactivity (PSR sort gate)” value was “high polyreactivity”. With “QVQLVESGGGLVQAGGSLRLSCAASGSIFKKYAKGWYIQAPGKERELVAAISKSGGSTYYADSVKGRFTISRDNAKTTVYLQMNSLKPEDTAVYYCAAAAGGSAYWDYDYWGQGTQVTVSS” the “polyreactivity (PSR sort gate)” value was “low polyreactivity”.
